Test results taken from patent US20260209386A1 (MYTHIC THERAPEUTICS, published 2026).

T1: Human PTK7 Protein, His Tag, Acro Biosystems (human, UniProt Q13308 31-704)
T1 construct: Bought recombinant protein; also called CCK4; not shown: His tag
T1 sequence: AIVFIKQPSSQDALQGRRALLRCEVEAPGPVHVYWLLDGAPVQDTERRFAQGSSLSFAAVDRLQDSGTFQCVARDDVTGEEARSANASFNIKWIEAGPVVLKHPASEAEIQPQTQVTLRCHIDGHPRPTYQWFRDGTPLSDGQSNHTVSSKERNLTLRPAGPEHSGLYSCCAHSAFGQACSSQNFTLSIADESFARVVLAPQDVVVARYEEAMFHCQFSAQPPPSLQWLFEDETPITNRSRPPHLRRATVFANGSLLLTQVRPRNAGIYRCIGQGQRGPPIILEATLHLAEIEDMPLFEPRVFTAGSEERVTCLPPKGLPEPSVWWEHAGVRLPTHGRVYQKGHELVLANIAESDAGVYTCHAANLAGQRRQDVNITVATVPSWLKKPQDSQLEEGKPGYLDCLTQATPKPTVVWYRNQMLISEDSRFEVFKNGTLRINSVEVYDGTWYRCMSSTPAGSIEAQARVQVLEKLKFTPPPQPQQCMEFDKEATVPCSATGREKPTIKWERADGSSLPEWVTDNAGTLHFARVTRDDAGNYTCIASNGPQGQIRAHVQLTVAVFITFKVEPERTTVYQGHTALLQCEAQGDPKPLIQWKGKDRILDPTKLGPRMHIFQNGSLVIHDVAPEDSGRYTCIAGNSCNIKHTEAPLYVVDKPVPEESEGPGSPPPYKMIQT

T2: Human PTK7 Protein, His Tag (Acro Biosystems) (human, UniProt Q13308 31-704)
T2 construct: Bought His-tagged protein; also called CCK4; not shown: His tag
T2 sequence: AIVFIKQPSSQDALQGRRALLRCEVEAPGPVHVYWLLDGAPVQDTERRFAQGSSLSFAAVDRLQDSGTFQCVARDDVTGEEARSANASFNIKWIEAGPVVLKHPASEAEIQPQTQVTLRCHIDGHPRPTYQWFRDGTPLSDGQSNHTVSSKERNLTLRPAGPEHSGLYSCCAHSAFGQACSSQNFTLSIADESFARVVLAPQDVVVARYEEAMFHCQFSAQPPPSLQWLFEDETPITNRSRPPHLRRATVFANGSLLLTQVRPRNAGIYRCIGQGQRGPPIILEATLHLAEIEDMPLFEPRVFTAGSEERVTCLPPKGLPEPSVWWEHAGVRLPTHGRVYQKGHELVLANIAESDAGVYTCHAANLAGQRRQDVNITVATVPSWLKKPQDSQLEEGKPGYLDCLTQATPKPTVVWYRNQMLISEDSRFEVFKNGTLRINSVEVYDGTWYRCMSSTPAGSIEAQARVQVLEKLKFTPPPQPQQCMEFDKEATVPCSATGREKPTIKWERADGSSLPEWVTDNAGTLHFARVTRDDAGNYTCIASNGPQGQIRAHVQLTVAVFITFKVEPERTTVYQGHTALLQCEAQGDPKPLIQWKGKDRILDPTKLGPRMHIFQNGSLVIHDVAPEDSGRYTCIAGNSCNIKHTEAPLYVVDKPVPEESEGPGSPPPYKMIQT


Each binder was assayed against T1, Human PTK7 Protein, His Tag, Acro … (assay: BLI, anti-human Fc capture, 50 nM PTK7; 2 = substantially similar binding relative to parent).

Binder	binding result
MYT11102 (antibody, V domains shown, MYT9412 HC variant) VH: EVQLVESGGGLVQPGGSLRLSCTASHFSLSTYAMSWVRQAPGKGLEWVGMIYINDNTYYASWAKGRFTISRDTSKNTVYLQMNSLRAEDTAVYFCARDIGISYYIGVSLWGQGTLVTVSS VL: EIVMTQSPSTLSASVGDRVIITCQASQSIGTRLSWYQQKPGKAPKLLIYGASKLATGVPSRFSGSGSGAEFTLTISSLQPDDFATYYCLGEYSYTTTDGIAFGQGTKLTVL	binds
MYT11104 (antibody, V domains shown, MYT9412 HC variant) VH: EVQLVESGGGLVQPGGSLRLSCTASGFHLSTYAMSWVRQAPGKGLEWVGMIYINDNTYYASWAKGRFTISRDTSKNTVYLQMNSLRAEDTAVYFCARDIGISYYIGVSLWGQGTLVTVSS VL: EIVMTQSPSTLSASVGDRVIITCQASQSIGTRLSWYQQKPGKAPKLLIYGASKLATGVPSRFSGSGSGAEFTLTISSLQPDDFATYYCLGEYSYTTTDGIAFGQGTKLTVL	binds
MYT11109 (antibody, V domains shown, MYT9412 HC variant) VH: EVQLVESGGGLVQPGGSLRLSCTASGFSLSTYHMSWVRQAPGKGLEWVGMIYINDNTYYASWAKGRFTISRDTSKNTVYLQMNSLRAEDTAVYFCARDIGISYYIGVSLWGQGTLVTVSS VL: EIVMTQSPSTLSASVGDRVIITCQASQSIGTRLSWYQQKPGKAPKLLIYGASKLATGVPSRFSGSGSGAEFTLTISSLQPDDFATYYCLGEYSYTTTDGIAFGQGTKLTVL	binds
MYT11110 (antibody, V domains shown, MYT9412 HC variant) VH: EVQLVESGGGLVQPGGSLRLSCTASGFSLSTYAHSWVRQAPGKGLEWVGMIYINDNTYYASWAKGRFTISRDTSKNTVYLQMNSLRAEDTAVYFCARDIGISYYIGVSLWGQGTLVTVSS VL: EIVMTQSPSTLSASVGDRVIITCQASQSIGTRLSWYQQKPGKAPKLLIYGASKLATGVPSRFSGSGSGAEFTLTISSLQPDDFATYYCLGEYSYTTTDGIAFGQGTKLTVL	binds
MYT11113 (antibody, V domains shown, MYT9412 HC variant) VH: EVQLVESGGGLVQPGGSLRLSCTASGFSLSTYAMSWVRQAPGKGLEWVGMHYINDNTYYASWAKGRFTISRDTSKNTVYLQMNSLRAEDTAVYFCARDIGISYYIGVSLWGQGTLVTVSS VL: EIVMTQSPSTLSASVGDRVIITCQASQSIGTRLSWYQQKPGKAPKLLIYGASKLATGVPSRFSGSGSGAEFTLTISSLQPDDFATYYCLGEYSYTTTDGIAFGQGTKLTVL	binds
MYT11116 (antibody, V domains shown, MYT9412 HC variant) VH: EVQLVESGGGLVQPGGSLRLSCTASGFSLSTYAMSWVRQAPGKGLEWVGMIYIHDNTYYASWAKGRFTISRDTSKNTVYLQMNSLRAEDTAVYFCARDIGISYYIGVSLWGQGTLVTVSS VL: EIVMTQSPSTLSASVGDRVIITCQASQSIGTRLSWYQQKPGKAPKLLIYGASKLATGVPSRFSGSGSGAEFTLTISSLQPDDFATYYCLGEYSYTTTDGIAFGQGTKLTVL	binds
MYT11118 (antibody, V domains shown, MYT9412 HC variant) VH: EVQLVESGGGLVQPGGSLRLSCTASGFSLSTYAMSWVRQAPGKGLEWVGMIYINDHTYYASWAKGRFTISRDTSKNTVYLQMNSLRAEDTAVYFCARDIGISYYIGVSLWGQGTLVTVSS VL: EIVMTQSPSTLSASVGDRVIITCQASQSIGTRLSWYQQKPGKAPKLLIYGASKLATGVPSRFSGSGSGAEFTLTISSLQPDDFATYYCLGEYSYTTTDGIAFGQGTKLTVL	binds

The binders below were run against T2, Human PTK7 Protein, His Tag (Acro …) (assay: BLI (Octet), antibody on anti-human Fc sensor, 50 nM PTK7; grade 2 = substantially similar binding relative to parent).

Binder	binding result
MYT11083 (antibody, V domains shown, MYT9361 LC variant) VH: EVQLVESGGGLVQPGGSLRLSCTASGLSLSSYWMSWVRQAPGKGLEWVGVISAGGNTYYANWAKGRFTISRDTSKNTVYLQMNSLRAEDTAVYFCARGDDGYTNAAYVSNLWGQGTLVTVSS VL: EIVMTQSPSTLSASVGDRVIITCQASQSISSWLSWYQQKPGKAPKLLIYHASTLASGVPSRFSGSGSGAEFTLTISSLQPDDFATYYCQSYFDSTTIAFGQGTKLTVL	binds
MYT11085 (antibody, V domains shown, MYT9361 LC variant) VH: EVQLVESGGGLVQPGGSLRLSCTASGLSLSSYWMSWVRQAPGKGLEWVGVISAGGNTYYANWAKGRFTISRDTSKNTVYLQMNSLRAEDTAVYFCARGDDGYTNAAYVSNLWGQGTLVTVSS VL: EIVMTQSPSTLSASVGDRVIITCQASQSISSWLSWYQQKPGKAPKLLIYKAHTLASGVPSRFSGSGSGAEFTLTISSLQPDDFATYYCQSYFDSTTIAFGQGTKLTVL	binds
MYT11086 (antibody, V domains shown, MYT9361 LC variant) VH: EVQLVESGGGLVQPGGSLRLSCTASGLSLSSYWMSWVRQAPGKGLEWVGVISAGGNTYYANWAKGRFTISRDTSKNTVYLQMNSLRAEDTAVYFCARGDDGYTNAAYVSNLWGQGTLVTVSS VL: EIVMTQSPSTLSASVGDRVIITCQASQSISSWLSWYQQKPGKAPKLLIYKASHLASGVPSRFSGSGSGAEFTLTISSLQPDDFATYYCQSYFDSTTIAFGQGTKLTVL	binds
MYT11087 (antibody, V domains shown, MYT9361 LC variant) VH: EVQLVESGGGLVQPGGSLRLSCTASGLSLSSYWMSWVRQAPGKGLEWVGVISAGGNTYYANWAKGRFTISRDTSKNTVYLQMNSLRAEDTAVYFCARGDDGYTNAAYVSNLWGQGTLVTVSS VL: EIVMTQSPSTLSASVGDRVIITCQASQSISSWLSWYQQKPGKAPKLLIYKASTHASGVPSRFSGSGSGAEFTLTISSLQPDDFATYYCQSYFDSTTIAFGQGTKLTVL	binds
MYT11088 (antibody, V domains shown, MYT9361 LC variant) VH: EVQLVESGGGLVQPGGSLRLSCTASGLSLSSYWMSWVRQAPGKGLEWVGVISAGGNTYYANWAKGRFTISRDTSKNTVYLQMNSLRAEDTAVYFCARGDDGYTNAAYVSNLWGQGTLVTVSS VL: EIVMTQSPSTLSASVGDRVIITCQASQSISSWLSWYQQKPGKAPKLLIYKASTLHSGVPSRFSGSGSGAEFTLTISSLQPDDFATYYCQSYFDSTTIAFGQGTKLTVL	binds
MYT11089 (antibody, V domains shown, MYT9361 LC variant) VH: EVQLVESGGGLVQPGGSLRLSCTASGLSLSSYWMSWVRQAPGKGLEWVGVISAGGNTYYANWAKGRFTISRDTSKNTVYLQMNSLRAEDTAVYFCARGDDGYTNAAYVSNLWGQGTLVTVSS VL: EIVMTQSPSTLSASVGDRVIITCQASQSISSWLSWYQQKPGKAPKLLIYKASTLAHGVPSRFSGSGSGAEFTLTISSLQPDDFATYYCQSYFDSTTIAFGQGTKLTVL	binds
MYT11090 (antibody, V domains shown, MYT9361 LC variant) VH: EVQLVESGGGLVQPGGSLRLSCTASGLSLSSYWMSWVRQAPGKGLEWVGVISAGGNTYYANWAKGRFTISRDTSKNTVYLQMNSLRAEDTAVYFCARGDDGYTNAAYVSNLWGQGTLVTVSS VL: EIVMTQSPSTLSASVGDRVIITCQASQSISSWLSWYQQKPGKAPKLLIYKASTLASGVPSRFSGSGSGAEFTLTISSLQPDDFATYYCHSYFDSTTIAFGQGTKLTVL	binds
MYT11092 (antibody, V domains shown, MYT9361 LC variant) VH: EVQLVESGGGLVQPGGSLRLSCTASGLSLSSYWMSWVRQAPGKGLEWVGVISAGGNTYYANWAKGRFTISRDTSKNTVYLQMNSLRAEDTAVYFCARGDDGYTNAAYVSNLWGQGTLVTVSS VL: EIVMTQSPSTLSASVGDRVIITCQASQSISSWLSWYQQKPGKAPKLLIYKASTLASGVPSRFSGSGSGAEFTLTISSLQPDDFATYYCQSHFDSTTIAFGQGTKLTVL	binds
MYT11095 (antibody, V domains shown, MYT9361 LC variant) VH: EVQLVESGGGLVQPGGSLRLSCTASGLSLSSYWMSWVRQAPGKGLEWVGVISAGGNTYYANWAKGRFTISRDTSKNTVYLQMNSLRAEDTAVYFCARGDDGYTNAAYVSNLWGQGTLVTVSS VL: EIVMTQSPSTLSASVGDRVIITCQASQSISSWLSWYQQKPGKAPKLLIYKASTLASGVPSRFSGSGSGAEFTLTISSLQPDDFATYYCQSYFDHTTIAFGQGTKLTVL	binds
MYT11097 (antibody, V domains shown, MYT9361 LC variant) VH: EVQLVESGGGLVQPGGSLRLSCTASGLSLSSYWMSWVRQAPGKGLEWVGVISAGGNTYYANWAKGRFTISRDTSKNTVYLQMNSLRAEDTAVYFCARGDDGYTNAAYVSNLWGQGTLVTVSS VL: EIVMTQSPSTLSASVGDRVIITCQASQSISSWLSWYQQKPGKAPKLLIYKASTLASGVPSRFSGSGSGAEFTLTISSLQPDDFATYYCQSYFDSTHIAFGQGTKLTVL	binds
MYT11098 (antibody, V domains shown, MYT9361 LC variant) VH: EVQLVESGGGLVQPGGSLRLSCTASGLSLSSYWMSWVRQAPGKGLEWVGVISAGGNTYYANWAKGRFTISRDTSKNTVYLQMNSLRAEDTAVYFCARGDDGYTNAAYVSNLWGQGTLVTVSS VL: EIVMTQSPSTLSASVGDRVIITCQASQSISSWLSWYQQKPGKAPKLLIYKASTLASGVPSRFSGSGSGAEFTLTISSLQPDDFATYYCQSYFDSTTHAFGQGTKLTVL	binds
MYT11099 (antibody, V domains shown, MYT9361 LC variant) VH: EVQLVESGGGLVQPGGSLRLSCTASGLSLSSYWMSWVRQAPGKGLEWVGVISAGGNTYYANWAKGRFTISRDTSKNTVYLQMNSLRAEDTAVYFCARGDDGYTNAAYVSNLWGQGTLVTVSS VL: EIVMTQSPSTLSASVGDRVIITCQASQSISSWLSWYQQKPGKAPKLLIYKASTLASGVPSRFSGSGSGAEFTLTISSLQPDDFATYYCQSYFDSTTIHFGQGTKLTVL	binds
